Measured values taken from article PMC2869534.

System: SNF2h (human)
Assay: Cy3 fluorescence intensity titration

Row | Substance | binding signal (fold lower K1/2 than apo) | K half [nM]
1 | 0-601-40 nucleosome, Cy3 | 3 | –
2 | 0-601-78 nucleosome, Cy3 | – | 353
